Common to all, as to test: co-IP; anti-Flag M2 affinity gel on extracts of NIH3T3 cells transfected with 3xFlag Cyclin A2 alleles; endogenous partners detected by Western blot; densitometry (ImageQuantTL) normalised to immunoprecipitated Cyclin A2, percent of WT; repeated 5 times
The target of test [1] is Cyclin A2 K256A, C-terminally fused to 3 Flag tags (mouse) (UniProt P51943).
The target in test [2] is Cyclin A2 WT, C-terminally fused to 3 Flag tags (mouse) (UniProt P51943).
The target in test [3] is Cyclin A2 E210Q, C-terminally fused to 3 Flag tags (mouse) (UniProt P51943).
Test [4] deals with Cyclin A2 Double (W207L, E210Q), C-terminally fused to 3 Flag tags (mouse) (UniProt P51943).
The target in test [5] is Cyclin A2 E285A, C-terminally fused to 3 Flag tags (mouse) (UniProt P51943).
Test [6] addresses Cyclin A2 E180A, C-terminally fused to 3 Flag tags (mouse) (UniProt P51943).
The target in test [7] is Cyclin A2 M200A, C-terminally fused to 3 Flag tags (mouse) (UniProt P51943).
Test [8] concerns the target Cyclin A2 L282R, C-terminally fused to 3 Flag tags (mouse) (UniProt P51943).
Test [9] concerns the target Cyclin A2 W207A, C-terminally fused to 3 Flag tags (mouse) (UniProt P51943).
Test [10] addresses Cyclin A2 D171A, C-terminally fused to 3 Flag tags (mouse) (UniProt P51943).
Test [11] deals with Cyclin A2 L204A, C-terminally fused to 3 Flag tags (mouse) (UniProt P51943).
Sequence of Cyclin A2 L204A, C-terminally fused to 3 Flag tags (mouse) (P51943 whole entry L204A, the tested form may be a part): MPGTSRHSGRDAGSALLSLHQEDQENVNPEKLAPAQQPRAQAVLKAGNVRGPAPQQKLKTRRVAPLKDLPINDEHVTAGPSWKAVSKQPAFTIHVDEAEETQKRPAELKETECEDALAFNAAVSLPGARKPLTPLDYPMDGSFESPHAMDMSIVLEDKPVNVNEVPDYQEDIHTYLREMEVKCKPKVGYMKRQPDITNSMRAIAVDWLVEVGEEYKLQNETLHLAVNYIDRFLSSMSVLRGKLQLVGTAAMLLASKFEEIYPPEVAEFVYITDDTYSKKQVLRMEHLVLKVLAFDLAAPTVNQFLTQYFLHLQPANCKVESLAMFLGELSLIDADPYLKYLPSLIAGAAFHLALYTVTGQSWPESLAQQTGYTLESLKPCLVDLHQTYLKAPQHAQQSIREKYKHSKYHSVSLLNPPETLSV

Sequence of Cyclin A2 Double (W207L, E210Q), C-terminally fused to 3 Flag tags (mouse) (P51943 whole entry W207L/E210Q, the tested form may be a part): as the sequence (P51943 whole entry L204A, the tested form may be a part) above, with A204L, W207L, E210Q counted along it
Sequence of Cyclin A2 E285A, C-terminally fused to 3 Flag tags (mouse) (P51943 whole entry E285A, the tested form may be a part): as the sequence (P51943 whole entry L204A, the tested form may be a part) above, with A204L, E285A counted along it
Sequence of Cyclin A2 WT, C-terminally fused to 3 Flag tags (mouse) (P51943 whole entry, the tested form may be a part): as the sequence (P51943 whole entry L204A, the tested form may be a part) above, with A204L counted along it
Sequence of Cyclin A2 L282R, C-terminally fused to 3 Flag tags (mouse) (P51943 whole entry L282R, the tested form may be a part): as the sequence (P51943 whole entry L204A, the tested form may be a part) above, with A204L, L282R counted along it
Sequence of Cyclin A2 E180A, C-terminally fused to 3 Flag tags (mouse) (P51943 whole entry E180A, the tested form may be a part): as the sequence (P51943 whole entry L204A, the tested form may be a part) above, with E180A, A204L counted along it
Sequence of Cyclin A2 D171A, C-terminally fused to 3 Flag tags (mouse) (P51943 whole entry D171A, the tested form may be a part): as the sequence (P51943 whole entry L204A, the tested form may be a part) above, with D171A, A204L counted along it
Sequence of Cyclin A2 K256A, C-terminally fused to 3 Flag tags (mouse) (P51943 whole entry K256A, the tested form may be a part): as the sequence (P51943 whole entry L204A, the tested form may be a part) above, with A204L, K256A counted along it
Sequence of Cyclin A2 E210Q, C-terminally fused to 3 Flag tags (mouse) (P51943 whole entry E210Q, the tested form may be a part): as the sequence (P51943 whole entry L204A, the tested form may be a part) above, with A204L, E210Q counted along it
Sequence of Cyclin A2 M200A, C-terminally fused to 3 Flag tags (mouse) (P51943 whole entry M200A, the tested form may be a part): as the sequence (P51943 whole entry L204A, the tested form may be a part) above, with M200A, A204L counted along it
Sequence of Cyclin A2 W207A, C-terminally fused to 3 Flag tags (mouse) (P51943 whole entry W207A, the tested form may be a part): as the sequence (P51943 whole entry L204A, the tested form may be a part) above, with A204L, W207A counted along it

In turn, “CDK2 (endogenous, NIH3T3) (from UniProt P97377 1-346)” had a percent co-precipitated relative to WT in test [1] of 68.2%.
With “CDK2 (endogenous, NIH3T3) (from UniProt P97377 1-346) (enzyme)”, the percent co-precipitated relative to WT in test [2] was found to be 100%; in test [3], 99.6%; in test [4], 66.4%; in [5] it was 41.7%; in test [6], 17.7%; in test [7], 86.4%. Moreover, the percent co-precipitated relative to WT is 81.5% in test [8], 1.2% in [9], 100% in [10] and 72.4% in [11].

These data come from paper PMC3145769.
